According to patent US20180312564A1 (VERSITECH, published 2018):

Experiments:
human PD-L2 = target: T1, human PD-L2 (human, UniProt Q9BQ51 20-273); assay: flow cytometry on 293T cells transfected with human PD-L2, anti-rabbit Fc detection
T1 construct: whole, on cells; also called CD273; B7-DC
T1 sequence (looked up): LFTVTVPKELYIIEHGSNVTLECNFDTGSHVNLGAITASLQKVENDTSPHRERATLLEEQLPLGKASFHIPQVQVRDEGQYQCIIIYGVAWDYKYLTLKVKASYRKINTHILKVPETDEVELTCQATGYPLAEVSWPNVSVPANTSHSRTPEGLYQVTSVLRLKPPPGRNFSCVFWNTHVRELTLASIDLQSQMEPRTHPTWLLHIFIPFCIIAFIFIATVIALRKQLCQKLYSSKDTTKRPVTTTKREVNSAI
Method: (§1) The results were analyzed by flow cytometry using a detection antibody against rabbit Fc (color lines) or isotype control (black line). […] Percentage of cells with positive staining (solid line) is shown with corresponding antibodies and isotype control (shaded). Data are representative of three independent experiments.

human PD-L1 = target: T2, human PD-L1 (human, UniProt Q9NZQ7 19-290); assay: flow cytometry on 293T cells transfected with human PD-L1, anti-rabbit Fc detection
T2 construct: whole, on cells; also called CD274; B7-H1
T2 sequence (Q9NZQ7 19-290): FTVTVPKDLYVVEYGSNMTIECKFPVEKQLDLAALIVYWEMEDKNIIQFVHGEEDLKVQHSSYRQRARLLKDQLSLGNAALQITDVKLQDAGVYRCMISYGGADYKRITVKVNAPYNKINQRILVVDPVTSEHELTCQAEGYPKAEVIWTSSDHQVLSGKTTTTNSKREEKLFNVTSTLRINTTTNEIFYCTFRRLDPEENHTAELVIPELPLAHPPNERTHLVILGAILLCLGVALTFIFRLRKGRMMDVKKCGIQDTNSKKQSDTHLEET
Method: as §1

B1: sΔ42PD1Fc (soluble Δ42PD1 fused with the rabbit IgG Fc domain) (Fc fusion)
chain: LALLVVTEGDNATFTCSFSNTSESFVLNWYRMSPSNQTDKLAAFPEDRSQPGQDCRFRVTQLPNGRDFHMSVVRARRNDSGTYLCGAISLAPKAQIKESLRAELRVTERRAEVPTAHPSPSPRPAGQLEATNTKVDKTVAPSTCSKPMCPPPELLGGPSVFIFPPKPKDTLMISRTPEVTCVVVDVSQDDPEVQFTWYINNEQVRTARPPLREQQFNSTIRVVSTLPIAHQDWLRGKEFKCKVHNKALPAPIEKTISKARGQPLEPKVYTMGPPREELSSRSVSLTCMINGFYPSDISVEWEKNGKAEDNYKTTPTVLDSDGSYFLYSKLSVPTSEWQRGDVFTCSVMHEALHNHYTQKSISHSPGK
Question: Which results are given for B1?
Answer: binding result (human PD-L2): no binding (tested: 0.5, 2, 5 and 20 µg/ml); binding result (human PD-L1): no binding (tested: 0.5, 2, 5 and 20 µg/ml)
